The supplement of paper PMC9112550, “Optimization of the antimicrobial peptide Bac7 by deep mutational scanning” (BMC Biology, 2022)

tested on: Escherichia coli TOP10; test: shrunken log2 fold change of peptide-encoding DNA abundance (4.5 h post-induction vs induction); higher = less antimicrobial activity (less host growth inhibition); settings: time post-induction: 4.5 h; library: site-saturation at positions 5, 18, 19, 20
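Further: peptides expressed intracellularly from a pBAD plasmid library in pooled LB shake-flask culture, induced with 0.3% L-arabinose, DNA abundance read by NGS, three biological replicates, DESeq2 with apeglm shrinkage.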

Sequence | shrunken log2 fold change
RRIRMRPPRLPRPRPRPKLNPRP | 0.851
RRIRYRPPRLPRPRPRPVPIPRP | -0.297
RRIRYRPPRLPRPRPRPIPIPRP | -0.168
RRIRRRPPRLPRPRPRPCSCPRP | -0.017
RRIRMRPPRLPRPRPRPSNHPRP | 0.00558
RRIRLRPPRLPRPRPRPDTCPRP | -0.149
RRIRMRPPRLPRPRPRPTCHPRP | 0.317
RRIRNRPPRLPRPRPRPCFVPRP | -0.147
RRIRARPPRLPRPRPRPQAFPRP | -0.323
RRIRFRPPRLPRPRPRPTHVPRP | 0.119
RRIRNRPPRLPRPRPRPMSIPRP | 0.00262
RRIRARPPRLPRPRPRPNWWPRP | 0.802
RRIRWRPPRLPRPRPRPCHHPRP | -0.723
RRIRERPPRLPRPRPRPFIPPRP | -0.481
RRIRSRPPRLPRPRPRPGLQPRP | 0.652
RRIRARPPRLPRPRPRPPSLPRP | 0.513
RRIRTRPPRLPRPRPRPSVNPRP | -1.91
RRIRMRPPRLPRPRPRPAYEPRP | 0.0216
RRIRWRPPRLPRPRPRPGRLPRP | -0.0636
RRIRVRPPRLPRPRPRPRKGPRP | 0.328
RRIRGRPPRLPRPRPRPWAVPRP | -0.142
RRIRNRPPRLPRPRPRPPYGPRP | -0.0471
RRIRWRPPRLPRPRPRPGTLPRP | -0.0473
RRIRNRPPRLPRPRPRPPIVPRP | -0.154
RRIRYRPPRLPRPRPRPVRNPRP | -0.161

Sequence | shrunken log2 fold change
RRIRARPPRLPRPRPRPYKWPRP | -0.393
RRIRRRPPRLPRPRPRPYICPRP | -0.452
RRIRWRPPRLPRPRPRPSWEPRP | -0.0924
RRIRLRPPRLPRPRPRPPFWPRP | 0.308
RRIRTRPPRLPRPRPRPRTVPRP | 0.00464
RRIRGRPPRLPRPRPRPLCIPRP | 0.366
RRIRVRPPRLPRPRPRPVDCPRP | 0.014
RRIRKRPPRLPRPRPRPWNQPRP | -0.0169
RRIRQRPPRLPRPRPRPIHVPRP | -0.15
RRIRIRPPRLPRPRPRPYTEPRP | -0.512
RRIRKRPPRLPRPRPRPSHHPRP | 0.02
RRIRCRPPRLPRPRPRPGMDPRP | -0.0572
RRIRWRPPRLPRPRPRPHAYPRP | -0.349
RRIRTRPPRLPRPRPRPDPFPRP | -0.0199
RRIRRRPPRLPRPRPRPSKWPRP | -0.149
RRIRNRPPRLPRPRPRPVYIPRP | -0.434
RRIRTRPPRLPRPRPRPSVKPRP | -0.177
RRIRCRPPRLPRPRPRPWMSPRP | -0.824
RRIRARPPRLPRPRPRPVVSPRP | 0.188
RRIRVRPPRLPRPRPRPQNHPRP | -0.608
RRIRFRPPRLPRPRPRPQERPRP | 0.0046
RRIRDRPPRLPRPRPRPTHCPRP | 0.0452
RRIRWRPPRLPRPRPRPCVVPRP | 0.0549
RRIRSRPPRLPRPRPRPTRWPRP | 0.721
RRIRVRPPRLPRPRPRPLQHPRP | -0.177

Sequence | shrunken log2 fold change
RRIRSRPPRLPRPRPRPDIDPRP | -0.15
RRIRDRPPRLPRPRPRPAMTPRP | 0.812
RRIRFRPPRLPRPRPRPIMRPRP | 0.0101
RRIRMRPPRLPRPRPRPNKWPRP | 0.079
RRIRRRPPRLPRPRPRPQGCPRP | -0.189
RRIRYRPPRLPRPRPRPRNYPRP | -1.26
RRIRWRPPRLPRPRPRPVTKPRP | 0.235
RRIRERPPRLPRPRPRPHYHPRP | -0.356
RRIRNRPPRLPRPRPRPGCMPRP | 0.0522
RRIRFRPPRLPRPRPRPQPCPRP | 0.078
RRIRDRPPRLPRPRPRPQGSPRP | -0.0152
RRIRPRPPRLPRPRPRPFNEPRP | -0.347
RRIRSRPPRLPRPRPRPRAHPRP | 0.409
RRIRSRPPRLPRPRPRPYRPPRP | -0.365
RRIRIRPPRLPRPRPRPFLWPRP | -0.0429
RRIRDRPPRLPRPRPRPDPQPRP | 0.209
RRIRTRPPRLPRPRPRPYVHPRP | -0.75
RRIRIRPPRLPRPRPRPYGAPRP | -0.199
RRIRTRPPRLPRPRPRPIFYPRP | -0.315
RRIRWRPPRLPRPRPRPLDCPRP | -0.117
RRIRMRPPRLPRPRPRPSHTPRP | 0.0597
RRIRMRPPRLPRPRPRPVTPPRP | 0.614
RRIRGRPPRLPRPRPRPEFRPRP | 0.634
RRIRHRPPRLPRPRPRPTRPPRP | 0.234
RRIRIRPPRLPRPRPRPSNVPRP | -0.683

Sequence | shrunken log2 fold change
RRIRARPPRLPRPRPRPLPGPRP | 0.467
RRIRWRPPRLPRPRPRPTQSPRP | 0.472
RRIRQRPPRLPRPRPRPTHKPRP | 0.0649
RRIRGRPPRLPRPRPRPPIYPRP | 0.132
RRIRIRPPRLPRPRPRPMIIPRP | -0.295
RRIRWRPPRLPRPRPRPASNPRP | -0.0347
RRIRQRPPRLPRPRPRPRRDPRP | 0.308
RRIRQRPPRLPRPRPRPCWRPRP | -0.0087
RRIRMRPPRLPRPRPRPIRWPRP | 0.632
RRIRARPPRLPRPRPRPMMYPRP | -0.134
RRIRCRPPRLPRPRPRPQRHPRP | -0.173
RRIRNRPPRLPRPRPRPTGYPRP | -0.0249
RRIRNRPPRLPRPRPRPLHFPRP | -0.563
RRIRFRPPRLPRPRPRPDITPRP | -0.0339
RRIRIRPPRLPRPRPRPSDVPRP | -0.838
RRIRLRPPRLPRPRPRPSFMPRP | -0.309
RRIRVRPPRLPRPRPRPCTKPRP | -0.275
RRIRDRPPRLPRPRPRPMLHPRP | 0.202
RRIRLRPPRLPRPRPRPSCHPRP | -0.475
RRIRFRPPRLPRPRPRPSTVPRP | -0.325
RRIRTRPPRLPRPRPRPKCQPRP | -0.144
RRIRCRPPRLPRPRPRPQCCPRP | 0.254
RRIRNRPPRLPRPRPRPLRVPRP | 0.896
RRIRSRPPRLPRPRPRPNHAPRP | -0.278
RRIRGRPPRLPRPRPRPKICPRP | -0.0723

Sequence | shrunken log2 fold change
RRIRLRPPRLPRPRPRPPPNPRP | 1.18
RRIRLRPPRLPRPRPRPQWDPRP | -0.00172
RRIRERPPRLPRPRPRPQSCPRP | 0.00299
RRIRLRPPRLPRPRPRPTYQPRP | -0.229
RRIRFRPPRLPRPRPRPAWFPRP | 0.122
RRIRFRPPRLPRPRPRPIWPPRP | 0.21
RRIRERPPRLPRPRPRPKAAPRP | 0.0382
RRIRWRPPRLPRPRPRPYWCPRP | -0.704
RRIRLRPPRLPRPRPRPYRNPRP | -1.13
RRIRDRPPRLPRPRPRPVGNPRP | 0.114
RRIRDRPPRLPRPRPRPHEEPRP | 0.175
RRIRNRPPRLPRPRPRPTDKPRP | 0.008
RRIRYRPPRLPRPRPRPPWFPRP | -0.205
RRIRLRPPRLPRPRPRPRCLPRP | 0.18
RRIRKRPPRLPRPRPRPVDNPRP | -0.0705
RRIRMRPPRLPRPRPRPQYNPRP | -0.934
RRIRPRPPRLPRPRPRPWWGPRP | -0.0751
RRIRWRPPRLPRPRPRPREHPRP | 0.822
RRIRERPPRLPRPRPRPEMHPRP | 0.0332
RRIRYRPPRLPRPRPRPCICPRP | -0.0423
RRIRGRPPRLPRPRPRPCLIPRP | -0.183
RRIRQRPPRLPRPRPRPWKYPRP | -0.149
RRIRERPPRLPRPRPRPSPWPRP | -0.445
RRIRHRPPRLPRPRPRPCSDPRP | -0.101
RRIRNRPPRLPRPRPRPMYLPRP | -0.251

Sequence | shrunken log2 fold change
RRIRKRPPRLPRPRPRPCWHPRP | 0.00832
RRIRNRPPRLPRPRPRPNTTPRP | -0.209
RRIRNRPPRLPRPRPRPNYKPRP | -0.827
RRIRDRPPRLPRPRPRPKMSPRP | -0.0119
RRIRERPPRLPRPRPRPTGIPRP | 0.0836
RRIRCRPPRLPRPRPRPWLFPRP | -0.179
RRIRSRPPRLPRPRPRPWHHPRP | -0.0809
RRIRIRPPRLPRPRPRPDGHPRP | -0.153
RRIRHRPPRLPRPRPRPNEAPRP | 0.0232
RRIRVRPPRLPRPRPRPCFYPRP | -0.511
RRIRHRPPRLPRPRPRPSDYPRP | -0.343
RRIRERPPRLPRPRPRPVGIPRP | 0.144
RRIRGRPPRLPRPRPRPGCCPRP | 1.2
RRIRYRPPRLPRPRPRPRGHPRP | -0.117
RRIRERPPRLPRPRPRPETCPRP | -0.127
RRIRGRPPRLPRPRPRPAMDPRP | 0.491
RRIRYRPPRLPRPRPRPVMPPRP | 0.047
RRIRERPPRLPRPRPRPAEGPRP | -0.179
RRIRGRPPRLPRPRPRPYAPPRP | 0.116
RRIRKRPPRLPRPRPRPDWHPRP | 0.0739
RRIRWRPPRLPRPRPRPAVCPRP | 0.803
RRIRGRPPRLPRPRPRPVHFPRP | 0.562
RRIRERPPRLPRPRPRPTIPPRP | -0.475
RRIRMRPPRLPRPRPRPLMFPRP | 0.0219
RRIRVRPPRLPRPRPRPGYHPRP | -0.364
